# According to the nanobody polyreactivity screen of Harvey et al. (2022):
# Assay: yeast display, Sf9 membrane polyspecificity reagent, FACS + sequencing; frameworks hold sequencing errors
# Outline: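 After 36–48 hours of galactose induction, yeast (Saccharomyces cerevisiae BJ5465) displaying a synthetic nanobody library were stained at 4 °C for 1 hour with 10% biotinylated, detergent-solubilized Sf9 membrane reagent. Streptavidin microbeads enriched the stained cells before FACS sorting into low and high (top ~1%) gates on anti-HA and streptavidin fluorescence. Each clone's polyreactivity label reflects its gate of origin.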
row,Sequence,polyreactivity (PSR sort gate)
1,QVQLVESGGGLDQAGGSLRLSCAASGFTFYVYTMGWYRQAPGKERELVARITSRAGRTYYADSVKGRFTISRDNAKNTVYLQMNSLKPEDTAVYYCNTRDFSGYVHALSLYDYWGQGTQVTVSS,high polyreactivity
2,QVQLVESGGGLDQAGGSLRLSCAASGGIFVGYAMGWYRQSPGKERELVASISSGGSTKYADSVKGRFTISRDNAKNTVYLQMNSLKPEDTAVYYCAATDTEGIDARYASVPTSYDYWGQGTQVTVSS,low polyreactivity
3,QVQLVESGGGLDQAGGSLRLSCAASGIIFVKYTMGWYIQAPGKERELDAAISRSGGSTYYADSVKGRFTISRDNAKYTVYLQMNSLKPEDTAVYYCNAGARKVYPGPMDYWGQGTQVTVSS,high polyreactivity
4,QVQLVESGGGLDQAGGSLRLSCAASGITFRWYAMGWYRQAPGKERELVAAISSGGSTRYADSVKGRFTISRDNAKNTVYLQMNSLKPEDTAVYYCAKRYYGRGYYYWGQGTQVTVSS,high polyreactivity
5,QVQLVESGGGLDQAGGSLRLSCAASGLIFYDKMGWYRQAPRKERELVAAISSSCGSTSYADSVKGRFTISRDNAKHTVYLQMNSLKPEDTAVYYCAADSYPAYLGFVGFDYWGQGTQVTVSS,low polyreactivity
6,QVQLVESGGGLDQAGGSLRLSCAASGLTFRPYAMGGYRQAPWKERELDAGISGGGGRTYYADSVKGRFTISRDNAKNTVYFQMNSLKPEDTAVYYCATPSAYRYPYYYDYEYWGQGTQVTVSS,low polyreactivity
7,QVQLVESGGGLDQAGGSLRLSCAASGNIFYGNAMGWSRQAPGKERELVAGITSGGSTNYADSVKGRFTISRDTAKNTVYLQMTSLKPEDTAVYYCNATSSGSIFGYEYWGQGTQVTVSS,low polyreactivity
8,QVQLVESGGGLDQAGGSLRLSCAASGRIFFGNVMGWYRQATGKDSELVAAITKRVGRTYYADSVKGRFTISRDNAKNTVYLQMNSLKPEDTAVYYCNAVTPLSYCRAAPLEMDYWGQGTQVTVSS,high polyreactivity
9,QVQLVESGGGLDQAGGSLRLSCAASGRIFGYYAMGWYRLAPGKERELVAGIRSVGSTNYADSVKGRFTISRDNAKNTVYLQMNSLKPEDTAVNYCASRLWHLSYAGQGGDYWGQGTQVTVSS,low polyreactivity
10,QVQLVESGGGLDQAGGSLRLSCAASGRIFHVNVMGGYRQAPGKERELVAAISKSGGSTYYADSVKGRFTISRDNAKNTVYLQMNSLKPEDTAVYYCAAVRDSARYYYWGQGTHVTVSS,high polyreactivity
11,QVQLVESGGGLDQAGGSLRLSCAASGRIFNKYAMGWYRQAPGKERELVAAITRSGTRTFYADSVKGRFTISRDNAKNTVYLQMNSLKPEDTAVYYCNRDQYPFTKMDYWGQGTQVTVSS,high polyreactivity
12,QVQLVESGGGLDQAGGSLRLSCAASGRIFRYYTMGWYRQAPGKERELVAAISTSDDSTNYADSVKGRFTISRDNAKNTVYLQMNSLKPEDTAVYYCAADQSRVGSYQDYDYWGQGTQVTVSS,low polyreactivity
13,QVQLVESGGGLDQAGGSLRLSCAASGRIFSFNAMGWYRQAPGKERELVAAISWSTGSTFYADSVKGRFTISRDNAKNTVYLQMNSLKPEDTAVYYCAREYYYRRGFFLRGYWGQGTQVTVSS,high polyreactivity
14,QVQLVESGGGLDQAGGSLRLSCAASGRIFSYYAMGWYRQAPGKERELVAVISRRGDNTYYADSVKGRFTISRDNAKKTVYFQMNSLKPEDTAVYYCAARFGYLTFYSSGYYWGQGTQVTVSS,high polyreactivity
15,QVQLVESGGGLDQAGGSLRLSCAASGRIFVYNAMGWSRQAPGKARELVATITFSSSNTYYADSVKGRFTISRENAKNTVYLQMNSLKPEDTAVYYCYRDYVYARDYGNFDYWGQGTQVTVSS,low polyreactivity
16,QVQLVESGGGLDQAGGSLRLSCAASGRTFARYDMGWYRQATGKERELVAGINGDGGSTNYADSVKGRFTISRDNSKNTVYLQMNSLKPEDTAVYYCNVDQEDRKLHVSIKQLSDHWGQGTQVTVSS,low polyreactivity
17,QVQLVESGGGLDQAGGSLRLSCAASGRTFGRYAMGWYRQAPGKERELVAAITRSGSSTYYADSVKGRFTISRDNAKNTVYLQMNSLKPEDTAVYYCAAGPRPRPSDYWGQGTQVTVSS,high polyreactivity
18,QVQLVESGGGLDQAGGSLRLSCAASGRTFGYNAMGWYRQAPGKERELVAAINWSGASTYYADSVKGRFTISRDNAKNTVYLQMNSLKPEDTAVYYCAARRKRVSFFPEYDYWGQGTQVTVSS,low polyreactivity
19,QVQLVESGGGLDQAGGSLRLSCAASGRTFGYYTMGWYRQAPWKERELVARINYIGSSTYYADSVKGRFTISRDNAKNTVYLQLNSLKREDTAVYYCNADTARGRSGVRRYYWGQGTQVTVSS,high polyreactivity
20,QVQLVESGGGLDQAGGSLRLSCAASGRTFYVYGMGWSRQAPGKERELVAAIRSSGGSTYADSVKGRFTISRDNAKKTVYLQMNSLKPEDTAVDYCAADRRYAESGYYWGQGTQVTVSS,high polyreactivity
21,QVQLVESGGGLDQAGGSLRLSCAASGRTNAPYAMGWYRPAPGKERELVAAISGGGSTNYADSVKGRFTISRDNAKNSVYLQMNSLKPEDTAVYSCAADQYHGVGINFRSDYDYWGQGTQVTVSS,low polyreactivity
22,QVQLVESGGGLDQAGGSLRLSCAASGRTSKTYAMGWYRQAPGKERELVATIDRSGDGTYYADSVKGRFTISRDNAKNTVYLQMNSLKPEDTAVYYCNAVTSSFYNRDSDYWGQGTQVSVSS,high polyreactivity

row,Sequence,polyreactivity (PSR sort gate)
1,QVQLVESGGGLDQAGGSLRLSCAASGRTYYLYAMGWYRQAPGKERELVAAITFNGGSTYYADSVKGRFTISRDNGKNTVYLQMNSLKPEDTAVDYCAGRLSKRSGYYYWGQGTQVTVSS,high polyreactivity
2,QVQLVESGGGLDQAGGSLRLSCAASGSIFDDYAMGWYRQAPGKERELVAAISWSGGRTYYADSVKGRFTISRDNAKNTVYLQMNSLKPEDTAVYYCAATTGVRSRRYYYWGQGTQVTVSS,low polyreactivity
3,QVQLVESGGGLDQAGGSLRLSCAASGSIFDRYAKGWYRQAPGTERELVASITWRATSTYYADSVKGRFTISRDNAKNTVYLKMNRLKPEETAVYYCAAAIAFGYRGTVAKYGYWGQGTQVTVSS,low polyreactivity
4,QVQLVESGGGLDQAGGSLRLSCAASGSIFETYVMGWYRQAPGKERELVAAINSGGSTYYADSVKGRFTISRDNAKNTVYLQMNSLKPEDTAVYYFAADSPYGYYEGDYWGQGTQVTVSS,low polyreactivity
5,QVQLVESGGGLDQAGGSLRLSCAASGSIFTYNVMGWYRQAPGKERELVAAISWDGDSTYYADSVKGRFTISRDNAMKTVYLQMNSLKAEDTAVYYCAADVHEKFQYDYWGQGNQVTVSS,high polyreactivity
6,QVQLVESGGGLDQAGGSLRLSCAASGSIFYPYAMGWYRQAPGKERELVASNSSGGSTYYADSVKGRFTISRDNAKNTVYLQMNSLKPEDTAVYYCARQDYKRFYRYRFGNLYDSWGQGTQVTVSS,high polyreactivity
7,QVQLVESGGGLDQAGGSLRLSCAASGSIIYWYAKGWYRQAPGKERELVADISRGGITNYADSVKGRFTISRDNEKNTVYLQMNSLKPEDTAFYYCAKTHYGVQRLDSWGQGTQVTVSS,low polyreactivity
8,QVQLVESGGGLDQAGGSLRLSCAASGSISLNAMGWYRQGPGKEREFVAVITWRVGDTYYADSVKGRITISRDNAKNTVYLQLNSRKPEDSAVYYCAADDLYYQGIYRGSEFDYWGQGTQVTVSS,low polyreactivity
9,QVQLVESGGGLDQAGGSLRLSCAASGSTFLTNAMGGYRQAPGKEMELVAVISLISGPTYYADSVKVRFTISRDNAKNTVYLQMNRLKPEDTAVYYSATDPYWNSPYVKYDYWGQGTQVTVSS,high polyreactivity
10,QVQLVESGGGLDQAGGSLRLSCAASGSTFRNNAMGCYRQAPGKEREFVAAISRRGGSTYADSVKGRFTISRDNAKITVYLQMNSLKPEDTAVYFCAVRPSRILTGGRMDYWGQGTQVTVSS,high polyreactivity
11,QVQLVESGGGLDQAGGSLRLSCAASGSTFRSYAMGWYRQAPGKERELVAVISSGDSTYYADSVKGRFTISRDNAKNTVYLQMNSLKQEDTAVYYCAADSYVLGRWYGYWGQGTQVTVSS,low polyreactivity
12,QVQLVESGGGLDQAGGSLRLSCAASGSTFWVNTMGWYRQAPGKERELVAGITSNGGSTSYADSVKGRFTISRDNAKNSVYLQMNSLKREDTAVYYCNADTYPDYWAYLYDYWGQGTQVTVSS,low polyreactivity
13,QVQLVESGGGLDQAGGSLRLSCAASGSTFYAYTMGWYRQAPGKERELVARISGRGGSTYYADSVKGRFTISRDNAKNTVFLQMYSLKPEDTAVYFCASRVYGSYRGIQYGYWGQGTQETVSS,high polyreactivity
14,QVQLVESGGGLDQAGGSLRLSCAASGSTFYLYAMGWYRQAPGKERELVAAISSGGRTNYADSVKGRFTISRDNAKNTVYLQMNSLKPEDTAVYYCAARIQWPTWSLYYYWGQGTQVTVSS,high polyreactivity
15,QVQLVESGGGLDQAGGSLRLSCAASGSTFYYYAMGWYRQAPGKERELVATISSGSSTNYADSVKGRFTISRDNAKNTVYLQMNCLKPEDTAVYYCAADRWYITLSIDATISYDYWGQGTQVTVSS,low polyreactivity
16,QVQLVESGGGLDQAGGSLRLSCAASGSTIHRNAMGWYRQAPGKERELVAAITSGGSTNYADSVKGRFTISRDNAKNTVYLQMNSLKPEDTAVYYCDKDYRHYNRGWYDYWGQGTQVTVSS,low polyreactivity
17,QVQLVESGGGLDQAGGSLRLSCAASGSTLFPYAMGWYRQAPGKERELVAAISSRGGRTNYADSVKGRFTISRDNAKNTDYLQLYSLKPEDTAVYYCAAGDDYWGQGTEVTVSS,high polyreactivity
18,QVQLVESGGGLDQAGGSLRLSCAASGSTLSGNAMGWYRHAPGKERELVAAITSSGGRTYYADSVKGRFTISRDNAKNTVYLQMNSLKPEDTAVYYCAARSRLGRYTYDYCGQGTQVTVSS,high polyreactivity
19,QVQLVESGGGLDQAGGSLRLSCAASGYTFVGNAMGWYRQAPGKERELVAAISRSGGRTYYADSVKGRFTISRDNAKYTVYLQMNSLKPEDTAVYYCAKQPGSGPYYWGQGTQVTVSS,high polyreactivity
20,QVQLVESGGGLDQAGGSLRLSCAASVNIFIYNTMGWYRQAPGKERELVAAITSDDSTKYADSVKGRFTISRDNAKNPVYLQMNTLKPEDTAVYYCAKRYYHPYWIDYDYWGQGTHVTVSS,low polyreactivity
21,QVQLVESGGGLDQAGGSLRLSCADSGITFSYYAMRWYRQAPGKERELVAAISSGGSKNYADSVKGRFTISRDNGKNTVYFQMNSLKPEDTEVYYCAATQQFWWAYRYDYWGQGTQVTVSS,low polyreactivity
